How the values were obtained:
[1] = biological target: mCAT-1, murine cationic amino acid transporter (ecotropic receptor) (mouse (endogenous in C17.2 NSCs and NIH 3T3 fibroblasts; Mus dunni fibroblasts in the infectious center assay)) (UniProt Q09143)
[2] = biological target: mCAT-1, murine cationic amino acid transporter (ecotropic receptor) (mouse (endogenous in C17.2 NSCs and NIH 3T3 fibroblasts; Mus dunni fibroblasts in the infectious center assay)) (UniProt Q09143); remark: listed apart in the source
[3] = biological target: mCAT-1, murine cationic amino acid transporter (ecotropic receptor) (mouse (endogenous in C17.2 NSCs and NIH 3T3 fibroblasts; Mus dunni fibroblasts in the infectious center assay)) (UniProt Q09143); remark: listed apart in the source

Sequence of UniProt Q09143 (Q09143 whole entry): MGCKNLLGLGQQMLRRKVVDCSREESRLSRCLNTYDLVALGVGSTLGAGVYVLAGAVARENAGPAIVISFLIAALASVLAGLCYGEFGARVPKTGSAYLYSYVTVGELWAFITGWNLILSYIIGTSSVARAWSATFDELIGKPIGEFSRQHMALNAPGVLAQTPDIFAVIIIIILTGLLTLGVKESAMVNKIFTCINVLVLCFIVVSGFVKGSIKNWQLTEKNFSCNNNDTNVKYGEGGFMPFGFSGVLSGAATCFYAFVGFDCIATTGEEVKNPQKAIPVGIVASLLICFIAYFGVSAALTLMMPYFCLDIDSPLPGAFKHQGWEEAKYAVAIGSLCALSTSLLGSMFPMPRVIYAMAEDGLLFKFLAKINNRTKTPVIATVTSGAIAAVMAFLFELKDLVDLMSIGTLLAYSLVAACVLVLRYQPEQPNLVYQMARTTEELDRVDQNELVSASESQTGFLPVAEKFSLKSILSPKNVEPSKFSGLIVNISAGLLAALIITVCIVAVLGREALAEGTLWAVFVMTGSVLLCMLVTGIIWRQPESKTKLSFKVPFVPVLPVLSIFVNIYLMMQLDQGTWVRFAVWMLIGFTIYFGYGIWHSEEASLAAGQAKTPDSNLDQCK

“CasBrE SU (surface subunit of the CasBrE Env, made from the CasES vector without the TM subunit) (domain or fragment)” was tested, and the superinfection interference: reduction of the titre of the ecotropic virus Fr57E on CasES-NSCs (without 4070A) against control NSCs [1] was 1 log, the superinfection interference: reduction of the titre of the ecotropic virus Fr57E on CasES-NSCs infected with 4070A [1] was 5 logs and the virus titration: vector titre of CasES+4070A-NSC supernatant on 4070A-infected 3T3 cells (3T3Am, amphotropic receptor blocked) against naive 3T3 cells (orders of magnitude) [2] was > 3. The infectious center assay: CasES+4070A-NSCs on DunniAm; infectious center efficiency (foci per 100 NSCs divided by plating efficiency) [3] was 109% and the infectious center assay: CasES+4070A-NSCs seeded on 4070A-infected dunni fibroblasts (DunniAm); vector-positive foci per 100 NSCs seeded (foci per 100 NSCs seeded) [3] was 18.

Reference: publication PMC2998453
